Assay results from patent US20230090771A1 (REGENTS OF THE UNIVERSITY OF MINNESOTA, published 2023).

T1: his6-SonA, split borosin precursor SonA (Shewanella oneidensis) with N-terminal hexa-histidine tag, … (Shewanella oneidensis, alpha-N-methylations on L63 and I65 (the vast majority purified in the 2-alpha-N-methylated state))
T1 construct: This complex was used for crystallisation; also called WP_011071666
T1 chain: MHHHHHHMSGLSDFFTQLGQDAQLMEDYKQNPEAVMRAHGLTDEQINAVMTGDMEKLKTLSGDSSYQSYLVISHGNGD

T2: his6-SonA, split borosin precursor SonA (Shewanella oneidensis) with N-terminal hexa-histidine tag, co-expressed with SonM
T2 chain: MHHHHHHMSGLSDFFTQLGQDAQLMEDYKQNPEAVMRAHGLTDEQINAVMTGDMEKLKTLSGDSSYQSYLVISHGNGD

T3: his6-SonA (Shewanella oneidensis), expressed alone as substrate for kinetics
T3 chain: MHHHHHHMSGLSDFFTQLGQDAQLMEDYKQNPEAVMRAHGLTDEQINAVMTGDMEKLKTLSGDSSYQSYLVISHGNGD


Assays:
[1] = target: T1, his6-SonA, split borosin precursor SonA …; assay: co-purification of untagged SonM with his6-SonA by nickel affinity and size exclusion chromatography, SDS-PAGE
[2] = target: T2, his6-SonA, split borosin precursor SonA …
[3] = target: T3, his6-SonA (Shewanella oneidensis), …

binding result [1] | Binder | MS1 alpha-N-methylation profile of SonA co-purified with SonM [2] | substrate turnover (coupled-enzyme Michaelis-Menten kinetics) [3]
binds | split borosin alpha-N-methyltransferase SonM (Shewanella oneidensis), untagged, co-expressed with his6-SonA (enzyme, also called WP_011071665) MGSLVCVGTGLQLAGQISVLSRSYIEHADIVFSLLPDGFSQRWLTKLNPNVINLQQFYAQNGEVKNRRDTYEQMVNAILDAVRAGKKTVCALYGHPGVFACVSHMAITRAKAEGFSAKMEPGISAEACLWADLGIDPGNSGHQSFEASQFMFFNHVPDPTTHLLLWQIAIAGEHTLTQFHTSSDRLQILVEQLNQWYPLDHEVVIYEAANLPIQAPRIERLPLANLPQAHLMPISTLLIPPAKKLEYNYAILAKLGIGPEDLG | the vast majority of SonA is purified as the 2-alpha-N-methylated state | 
 | his6-SonM wild type (Shewanella oneidensis), expressed alone for kinetics (protein) MHHHHHHSSMGSLVCVGTGLQLAGQISVLSRSYIEHADIVFSLLPDGFSQRWLTKLNPNVINLQQFYAQNGEVKNRRDTYEQMVNAILDAVRAGKKTVCALYGHPGVFACVSHMAITRAKAEGFSAKMEPGISAEACLWADLGIDPGNSGHQSFEASQFMFFNHVPDPTTHLLLWQIAIAGEHTLTQFHTSSDRLQILVEQLNQWYPLDHEVVIYEAANLPIQAPRIERLPLANLPQAHLMPISTLLIPPAKKLEYNYAILAKLGIGPEDLG |  | SonM wild type (WT) and several active-site mutants reveal multiple SonA substrate turnover
 | SonM mutant Y58F (protein) MHHHHHHSSMGSLVCVGTGLQLAGQISVLSRSYIEHADIVFSLLPDGFSQRWLTKLNPNVINLQQFFAQNGEVKNRRDTYEQMVNAILDAVRAGKKTVCALYGHPGVFACVSHMAITRAKAEGFSAKMEPGISAEACLWADLGIDPGNSGHQSFEASQFMFFNHVPDPTTHLLLWQIAIAGEHTLTQFHTSSDRLQILVEQLNQWYPLDHEVVIYEAANLPIQAPRIERLPLANLPQAHLMPISTLLIPPAKKLEYNYAILAKLGIGPEDLG |  | SonM wild type (WT) and several active-site mutants reveal multiple SonA substrate turnover
 | SonM mutant R67K (protein) MHHHHHHSSMGSLVCVGTGLQLAGQISVLSRSYIEHADIVFSLLPDGFSQRWLTKLNPNVINLQQFYAQNGEVKNKRDTYEQMVNAILDAVRAGKKTVCALYGHPGVFACVSHMAITRAKAEGFSAKMEPGISAEACLWADLGIDPGNSGHQSFEASQFMFFNHVPDPTTHLLLWQIAIAGEHTLTQFHTSSDRLQILVEQLNQWYPLDHEVVIYEAANLPIQAPRIERLPLANLPQAHLMPISTLLIPPAKKLEYNYAILAKLGIGPEDLG |  | SonM wild type (WT) and several active-site mutants reveal multiple SonA substrate turnover
 | SonM mutant Y71F (protein) MHHHHHHSSMGSLVCVGTGLQLAGQISVLSRSYIEHADIVFSLLPDGFSQRWLTKLNPNVINLQQFYAQNGEVKNRRDTFEQMVNAILDAVRAGKKTVCALYGHPGVFACVSHMAITRAKAEGFSAKMEPGISAEACLWADLGIDPGNSGHQSFEASQFMFFNHVPDPTTHLLLWQIAIAGEHTLTQFHTSSDRLQILVEQLNQWYPLDHEVVIYEAANLPIQAPRIERLPLANLPQAHLMPISTLLIPPAKKLEYNYAILAKLGIGPEDLG |  | SonM wild type (WT) and several active-site mutants reveal multiple SonA substrate turnover
 | SonM mutant Y93F (protein) MHHHHHHSSMGSLVCVGTGLQLAGQISVLSRSYIEHADIVFSLLPDGFSQRWLTKLNPNVINLQQFYAQNGEVKNRRDTYEQMVNAILDAVRAGKKTVCALFGHPGVFACVSHMAITRAKAEGFSAKMEPGISAEACLWADLGIDPGNSGHQSFEASQFMFFNHVPDPTTHLLLWQIAIAGEHTLTQFHTSSDRLQILVEQLNQWYPLDHEVVIYEAANLPIQAPRIERLPLANLPQAHLMPISTLLIPPAKKLEYNYAILAKLGIGPEDLG |  | SonM wild type (WT) and several active-site mutants reveal multiple SonA substrate turnover
